Results from the supplement of paper PMC10567573.

B1: MFF (parent)
chain: YTEGISQRMRVPEKLKVAPPNADL

Variants of: B1
Assay: protein stability index of a GFP-peptide fusion (GPS, HEK-293T) (PSI 1-6); higher = more stable
Conditions: c terminus: a fixed tail appended
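Further: lentivirally expressed fusions sorted by FACS into six bins by GFP to DsRed ratio, PSI derived from sequencing read proportions per bin multiplied by bin number.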

Variant	protein stability index
YTEGISQRGRVPEKLKVAPPNADL	2.89
YTEGISQRIRVPEKLKVAPPNADL	2.2
YTEGISQRQRVPEKLKVAPPNADL	2.79
YTEGISQRSRVPEKLKVAPPNADL	2.55
YTEGISQRVRVPEKLKVAPPNADL	2.35
YTEGISQRNRVPEKLKVAPPNADL	2.96
YTEGISQRWRVPEKLKVAPPNADL	2.01
YTEGISQRLRVPEKLKVAPPNADL	3.22
YTEGISQRRRVPEKLKVAPPNADL	2.54
YTEGISQRFRVPEKLKVAPPNADL	3.02
YTEGISQRTRVPEKLKVAPPNADL	2.74
YTEGISQRARVPEKLKVAPPNADL	2.41
YTEGISQRKRVPEKLKVAPPNADL	3.37
YTEGISQRCRVPEKLKVAPPNADL	2.49
YTEGISQRYRVPEKLKVAPPNADL	2.57
YTEGISQRDRVPEKLKVAPPNADL	3.57
YTEGISQRHRVPEKLKVAPPNADL	3.17
YTEGISQRERVPEKLKVAPPNADL	2.89
YTEGISQRPRVPEKLKVAPPNADL	3.27
YTEGISQRMRVPEKFKVAPPNADL	2.53
YTEGISQRMRVPEKHKVAPPNADL	2.91
YTEGISQRMRVPEKCKVAPPNADL	2.44
YTEGISQRMRVPEKNKVAPPNADL	2.99
YTEGISQRMRVPEKPKVAPPNADL	3.05

Variant	protein stability index
YTEGISQRMRVPEKDKVAPPNADL	3.08
YTEGISQRMRVPEKSKVAPPNADL	3.15
YTEGISQRMRVPEKRKVAPPNADL	2.58
YTEGISQRMRVPEKGKVAPPNADL	3.38
YTEGISQRMRVPEKWKVAPPNADL	2.51
YTEGISQRMRVPEKVKVAPPNADL	3.09
YTEGISQRMRVPEKMKVAPPNADL	2.59
YTEGISQRMRVPEKIKVAPPNADL	2.69
YTEGISQRMRVPEKKKVAPPNADL	3.19
YTEGISQRMRVPEKYKVAPPNADL	3.12
YTEGISQRMRVPEKTKVAPPNADL	2.71
YTEGISQRMRVPEKAKVAPPNADL	3.15
YTEGISQRMRVPEKQKVAPPNADL	3.06
YTEGISQRMRVPEKEKVAPPNADL	3.36
YTEGISQRMRVPEGLKVAPPNADL	3.28
YTEGISQRMRVPECLKVAPPNADL	3.07
YTEGISQRMRVPEALKVAPPNADL	3.06
YTEGISQRMRVPEMLKVAPPNADL	3.39
YTEGISQRMRVPENLKVAPPNADL	3.44
YTEGISQRMRVPEDLKVAPPNADL	3.13
YTEGISQRMRVPEVLKVAPPNADL	2.72
YTEGISQRMRVPETLKVAPPNADL	3.06
YTEGISQRMRVPEILKVAPPNADL	2.71
YTEGISQRMRVPEHLKVAPPNADL	2.88

Variant	protein stability index
YTEGISQRMRVPESLKVAPPNADL	3.38
YTEGISQRMRVPEWLKVAPPNADL	2.11
YTEGISQRMRVPEFLKVAPPNADL	2.96
YTEGISQRMRVPEPLKVAPPNADL	3.32
YTEGISQRMRVPEELKVAPPNADL	3.17
YTEGISQRMRVPERLKVAPPNADL	3.55
YTEGISQRMRVPELLKVAPPNADL	2.87
YTEGISQRMRVPEYLKVAPPNADL	2.44
YTEGISQRMRVPEQLKVAPPNADL	3.41
YTEGISQKMRVPEKLKVAPPNADL	2.52
YTEGISQGMRVPEKLKVAPPNADL	2.47
YTEGISQHMRVPEKLKVAPPNADL	2.28
YTEGISQEMRVPEKLKVAPPNADL	3.6
YTEGISQYMRVPEKLKVAPPNADL	1.75
YTEGISQDMRVPEKLKVAPPNADL	3.76
YTEGISQMMRVPEKLKVAPPNADL	2.16
YTEGISQIMRVPEKLKVAPPNADL	1.57
YTEGISQFMRVPEKLKVAPPNADL	1.95
YTEGISQQMRVPEKLKVAPPNADL	2.79
YTEGISQPMRVPEKLKVAPPNADL	2.81
YTEGISQVMRVPEKLKVAPPNADL	2.6
YTEGISQWMRVPEKLKVAPPNADL	2.3
YTEGISQSMRVPEKLKVAPPNADL	2.43
YTEGISQLMRVPEKLKVAPPNADL	2.2

Variant	protein stability index
YTEGISQNMRVPEKLKVAPPNADL	3.18
YTEGISQTMRVPEKLKVAPPNADL	2.76
YTEGISQRMRVPEKLKMAPPNADL	2.75
YTEGISQRMRVPEKLKAAPPNADL	2.82
YTEGISQRMRVPEKLKEAPPNADL	3.25
YTEGISQRMRVPEKLKYAPPNADL	2.3
YTEGISQRMRVPEKLKFAPPNADL	2.6
YTEGISQRMRVPEKLKSAPPNADL	2.48
YTEGISQRMRVPEKLKCAPPNADL	2.18
YTEGISQRMRVPEKLKIAPPNADL	2.54
YTEGISQRMRVPEKLKGAPPNADL	2.65
YTEGISQRMRVPEKLKQAPPNADL	2.95
YTEGISQRMRVPEKLKWAPPNADL	2.35
YTEGISQRMRVPEKLKLAPPNADL	2.88
YTEGISQRMRVPEKLKNAPPNADL	2.85
YTEGISQRMRVPEKLKHAPPNADL	2.9
YTEGISQRMRVPEKLKRAPPNADL	3.22
YTEGISQRMRVPEKLKPAPPNADL	3.31
YTEGISQRMRVPEKLKDAPPNADL	3.18
YTEGISQRMRVPEKLKTAPPNADL	2.89
YTEGISQRMRVPEKLKKAPPNADL	3.29
YTEGISQRMRVPEKLHVAPPNADL	3.21
